Drawing on paper PMC4428384, “Differences in conformational dynamics within the Hsp90 chaperone family reveal mechanistic insights” (Frontiers in Molecular Biosciences, 2014), this text covers subunit exchange rate for 1 protein.

Data set [1] concerns the molecule itself. The experiment in a line: FRET or BRET; subunit exchange as in a1, in the presence of ADP.
Data set [2] concerns the molecule itself. As to the kind of experiment: FRET or BRET; subunit exchange as in a1, in the presence of ATP. For orientation: Bioluminescence resonance energy transfer reports proximity on the nanometre scale.
Data set [3] deals with the molecule itself. As to the kind of experiment: FRET or BRET; subunit exchange, dimer to monomers: ATTO 488 and ATTO 550 labeled proteins combined (400 nM each), rapidly mixed 1:1 with unlabeled protein (20 μM) in a stopped-flow device, 480 nm excitation, 590 nm cut-off filter; no nucleotide (apo).

B1: hHsp90β-E20C,C366A,C412T,C521A,C564T,C589A,C590A, labeled with ATTO 488 or ATTO 550 (natural protein)
chain: not shown
modifications: ATTO 488 maleimide or ATTO 550 maleimide on the single cysteine (E20C)
notes: human Hsp90β; single cysteine variant with the natural cysteines replaced; Homodimeric protein; the rows are protomer with protomer
As to B1, the values for the subunit exchange rate in data set [1], in data set [2] and in data set [3] were 0.016 s⁻¹, 0.01 s⁻¹ and 0.016 s⁻¹, respectively.
